Assay results: PMC5663475, “SAV1 promotes Hippo kinase activation through antagonizing the PP2A phosphatase STRIPAK” (eLife, 2017)

B1: Myc-SAV1 SARAH (residues 321–383) wild type [modified: 35S-methionine labelled; 35S-methionine labelled] [human] / GST-MST2 SARAH (residues 430–491) [human] (parent complex)
chain 1: ILKWELFQLADLDTYQGMLKLLFMKELEQIVKMYEAYRQALLTELENRKQRQQWYAQQHGKNF
chain 2: KVPQDGDFDFLKNLSLEELQMRLKALDPMMEREIEELRQRYTAKRQPILDAMDAKKRRQQNF

Variants of: B1
Assay: GST pull-down of in vitro translated 35S-labeled Myc-SAV1 SARAH, quantified; read off a plot

Row | Variant | ratio to parent
1 | chain 1 L41A | ~0.01
2 | chain 1 L45A | ~0.06
3 | chain 1 E26A | ~0.02
4 | chain 1 I30A | ~0.04
5 | chain 1 R48A | ~0.03
6 | chain 1 L27A | ~0.7
7 | chain 1 L42A | ~0.2
8 | chain 1 R38A | ~0.03
9 | chain 1 Q16A | ~0.4

The remaining lines, values ahead:

Row | ratio to parent | Variant
10 | ~0.04 | chain 1 Y37A
11 | ~0.53 | chain 1 V31A
12 | ~0.9 | chain 1 T14A
13 | ~0.36 | chain 1 Y34A
